Test system: Arabidopsis
Test: dgt-28, dgt-32, dgt-33, dgt-3, dgt-7 transformed Arabidopsis (T1, T2, T3) response to postemergence glyphosate, % visual injury
Format: in vivo, Arabidopsis thaliana
Conditions: 14 days after application
Description: Transgenic T1 Arabidopsis plants containing the dgt-28 transgene were sprayed with differing rates of glyphosate. Elevated rates were applied in this study to determine the relative levels of resistance (105, 420, 1,680 or 3,360 g ae/ha). A typical 1× usage rate of glyphosate that will control non-transformed Arabidopsis is 420 g ae/ha. […] The T1 Arabidopsis plants that were used in this study were variable copy number for the dgt-28 transgene. The low copy dgt-28 T1 Arabidopsis plants were self-pollinated and used to produce T2 plants.
Results of Glyphosate Selection of Transformed dgt-28 Arabidopsis Plants. The Arabidopsis T1 transformants were first selected from the background of untransformed seed using a glufosinate selection scheme. Three flats or 30,000 seed were analyzed for each T1 construct. The T1 plants selected above were molecularly characterized and representative plants with variable copy number were subsequently transplanted to individual pots and sprayed with various rates of commercial glyphosate as previously described. The response of these plants is presented in terms of % visual injury 2 weeks after treatment (WAT). […] An arithmetic mean and standard deviation is presented for each construct used for Arabidopsis transformation. The range in individual response is also indicated in the last column for each rate and transformation. Wild-type, non-transformed Arabidopsis (c.v. Columbia) served as a glyphosate sensitive control.
T2Arabidopsis Data. The second generation plants (T2) of selected T1 Arabidopsis events which contained low copy numbers of the dgt-28 transgene were further characterized for glyphosate tolerance. Glyphosate was applied as described previously. The response of the plants is presented in terms of % visual injury 2 weeks after treatment (WAT). […] An arithmetic mean and standard deviation are presented for each construct used for Arabidopsis transformation. The range in individual response is also indicated in the last column for each rate and transformation. Wild-type, non-transformed Arabidopsis (cv. Columbia) served as a glyphosate sensitive control. In the T2 generation hemizygous and homozygous plants were available for testing for each event and therefore were included for each rate of glyphosate tested. Hemizygous plants contain two different alleles at a locus as compared to homozygous plants which contain the same two alleles at a locus. Variability of response to glyphosate is expected in the T2 generation as a result of the difference in gene dosage for hemizygous as compared to homozygous plants. The variability in response to glyphosate is reflected in the standard deviation and range of response.
T3 Arabidopsis Data. The third generation plants (T3) of selected T2 Arabidopsis events which contained low copy numbers of the dgt-28 transgene were further characterized for glyphosate tolerance. […] Glyphosate was applied as described previously. The response of the plants is presented in terms of % visual injury 2 weeks after treatment (WAT). […] An arithmetic mean and standard deviation are presented for each construct used for Arabidopsis transformation. The range in individual response is also indicated in the last column for each rate and transformation. Wild-type, non-transformed Arabidopsis (cv. Columbia) served as a glyphosate-sensitive control.

[1] = Table 8, T1 Arabidopsis, 105 g ae/ha glyphosate
[2] = Table 8, T1 Arabidopsis, 420 g ae/ha glyphosate
[3] = Table 8, T1 Arabidopsis, 1680 g ae/ha glyphosate
[4] = Table 8, T1 Arabidopsis, 3360 g ae/ha glyphosate
[5] = Table 10, T1 Arabidopsis, 1,680 g ae/ha glyphosate

B1: pDAB107527: TraP4 v2 - dgt-28 v5: binary construct TraP4 v2:dgt-28 v5 (SEQ ID NO:32) (nucleic acid)
DNA: ATGCTTGCTAGACAAGGTGGAAGTCTGAGAGCTTCTCAATGCAACGCTGGACTTGCTAGAAGAGTTGAAGTTGGTGCTCTTGTTGTTCCTAGACCTATCTCTGTTAACGACGTTGTTCCTCACGTTTACTCTGCTCCACTTTCTGTTGCTAGAAGGTCTTGCTCTAAGTCCTCCATTAGGTCCACTAGAAGGCTTCAAACTACTGTGTGCTCTGCTGCAAGAGGGATGCCAGCCTTGTCTTTACCTGGATCAAAGAGTATCACAGCTAGGGCACTCTTTCTTGCTGCTGCTGCTGATGGGGTTACTACTTTGGTGAGGCCATTGAGAAGTGACGACACAGAAGGATTCGCTGAGGGGTTAGTTCGTTTAGGCTATCGTGTAGGGAGGACACCCGATACTTGGCAAGTCGATGGCAGACCACAAGGACCAGCAGTGGCTGAGGCTGACGTCTACTGTAGAGACGGAGCAACCACCGCTAGATTCTTGCCAACCTTAGCAGCTGCTGGTCACGGAACATACAGATTTGATGCTTCACCACAGATGAGGAGACGTCCTCTTTTGCCCTTAAGCAGAGCCTTGAGGGATTTGGGTGTCGATCTTAGACACGAAGAAGCTGAAGGTCATCACCCTCTGACTGTCCGTGCTGCTGGGGTTGAAGGAGGAGAGGTTACTTTGGATGCTGGTCAGTCAAGTCAGTATCTCACTGCCTTGTTGCTCCTTGGTCCCCTTACAAGACAAGGACTGAGGATAAGGGTTACTGATTTGGTGTCAGCACCATACGTGGAGATTACGCTTGCAATGATGAGGGCTTTCGGAGTTGAAGTGGCAAGGGAGGGAGATGTGTTCGTTGTTCCACCTGGTGGATATCGTGCAACTACGTATGCTATAGAACCCGACGCAAGTACTGCTTCTTACTTCTTCGCAGCTGCTGCTTTGACTCCTGGAGCTGAAGTGACTGTACCTGGGTTAGGCACGGGAGCACTTCAAGGAGATTTGGGATTTGTAGATGTCTTAAGGAGAATGGGAGCCGAGGTGTCCGTAGGAGCTGATGCAACCACTGTTAGAGGAACTGGTGAATTGCGTGGCCTTACAGCCAACATGAGAGACATAAGTGATACGATGCCGACCCTCGCTGCAATAGCACCCTTTGCTAGTGCTCCAGTTAGAATCGAGGATGTTGCCAACACTCGTGTCAAAGAATGTGACAGACTTGAGGCTTGTGCAGAGAACCTTAGGAGGTTGGGAGTAAGGGTTGCAACGGGTCCGGACTGGATTGAGATACACCCTGGTCCAGCTACTGGTGCTCAAGTCACAAGCTATGGTGATCACAGAATTGTGATGTCATTTGCAGTGACTGGACTTCGTGTGCCTGGGATCAGCTTCGACGACCCTGGCTGTGTTCGTAAGACTTTTCCTGGGTTTCACGAGGCTTTCGCAGAATTGAGGCGTGGCATTGGGAGCTGA
modifications: In-frame fusion of dgt-28 v5 and TraP4 v2
% Injury Ave [1]: 3.8%
% Injury Range (%) [1]: 0-15%
No. plants with 20-40% injury [1]: 0
No. plants with <20% injury [1]: 4
No. plants with >40% injury [1]: 0
% Injury Ave [2]: 28.8%
% Injury Range (%) [2]: 0-65%
No. plants with 20-40% injury [2]: 1
No. plants with <20% injury [2]: 2
No. plants with >40% injury [2]: 1
% Injury Ave [3]: 55.0%
% Injury Range (%) [3]: 35-85%
No. plants with 20-40% injury [3]: 2
No. plants with <20% injury [3]: 0
No. plants with >40% injury [3]: 2
% Injury Ave [4]: 43.8%
% Injury Range (%) [4]: 30-70%
No. plants with 20-40% injury [4]: 2
No. plants with <20% injury [4]: 0
No. plants with >40% injury [4]: 2
% Injury Ave [5]: 55.0%
% Injury Range (%) [5]: 35-85%
No. plants with 20-40% injury [5]: 2
No. plants with <20% injury [5]: 0
No. plants with >40% injury [5]: 2

— US9493781B2, “Synthetic brassica-derived chloroplast transit peptides” (DOW AGROSCIENCES LLC, priority 2012, dated 2016)
